# Test results from the NTF2 design screens of Basanta et al. (2020).
# Assay: protease stability score; higher = more stable; yeast display proteolysis, trypsin and chymotrypsin;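 note: relative to predicted unfolded state with 0 unfolded-like and 1 meaning tenfold more protease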
row,Sequence,protease stability score
1,DEDEEDVDRVSRRWARAMTTGDEDELRELLDPNTRYVQGDKHLHGRTQFERHLREMRFIIHDVRVDNITIIDGRMHIHGHVVGELRTEDHEHHFIFRFHLIVMKINGKWLIKHVDVQ,0.819
2,DEQERAQEALRRFLRVFQEGDPDRARQQADKDVQMVVGDKEYEGREQVSRAIESLRERVDEFHITVRRITVSGNRVVVDAKLKLNINGKEDDVTLKLVIDVSGDKISIKRVEVR,1.16
3,SEEEEFAERLVRMFEEELATGDEHKLQRLLDPHVKVEINGREIIGREEWTNHLDHIRLELHDTKLREVRVQGDKIHVHGKTDIIIKVGDKSERHHVEVLFIIKKINGRWILERVHVR,1.13
4,SDWDEWTKRMLDILIEALETGDEEVLSRLIDPNMRLDINGQEFHGREVILRHLITEIQRADHVEFRIEDRDLIDGRVYMEVEKIIHINGVEFRHHVLIIIEKVDGRWYINSVHVR,2.46
5,SEEDKEREEWLHLLKHSLETGDEQALSRMADPHVRLVVGDKELHGREDYERHWREFLERFPNVTTEVRLRRVEIYGDKIRIDTELRIHVGDKHHSLRVDLIMVKVDGRWFMKEIRIK,1.21
6,TEDHERIKKHIEILMHNLKTGNFEALVRMADPHVRFRLVQGNFHDETHGRDAWREVLERLGIDHIEIRDIRIHLYDGRLEMRIDGISRFNGREHKVELIIIIDKIDGRWRISEVELRIE,2.15
7,DEKHEFVRRRIEEWLEALRTGDEDTLHRLADPNVKMNINGVERHGRESMLSLFEEFGVNHFHIRDVKIQGEKSFIDGEIRYGDKIHRVQMEIQVIDGVLESHKLRVH,1.13
8,SEDTRLKEEFLRRVLESEHTGDFESLQEMLDPNTRIEFNGQELIGREEAERILHQARIHDVKIKSMRLIDGRIELNGVLDGNFNGRRRHLEVRIYITKIDGRWVLESIEIE,1.49
9,SEEHRDIEIARHIWVDMLRTGDERKSKELADPHVQIHFENRIYHGREEWERMIHELIHTLGADHIEIRIHSIEVQGDKILVHFHIEFQVNGKYLRYDSRSVFIKINGQWHLRSVYII,1.25
10,TEEEHIIDDFDKRLLHAFVTGNEDLLAKLADPNVRLSVKIGDKTIERHGMESFRNWLRRFHEEIRIEDHKSDEVRFYNGVLEHHGTVLGHVNGVRTKVHVLEIYFIINGRMRNIWIEVR,1.54
11,DELEQWVKHALEIWVRSLHTGDEDNLSELVDPNVRIDVNGQELHGRELVLHFLSHMRVHIIITRDREIQGNKAIMHLEVHHHQGDKEIHFRFDLIFHKYDGRWRLTEIRIE,1.03
12,DDEERIASFVIKMWLHSYLTGDENLLREFLDPNVKVRNEVNGRDWTHHGREALLWLLEFLGVKHVEHVRLHDLLVVNGRATSREIYHGKIGDKRTTFHFTLYIIRIDGVVKKFEIELE,1.3
13,DEDEHMVKHAIELILKSIITGDEDLWKRLFDPDVKIEVGDKDVHGRELATEFMKLWRDHMRFTHHEITRVETYNGRAHIHGRDRVTIDGQEMTRESHLVMIKVDGRWFLHSVHIK,1.07
14,TEREEEVHHVQRLEWEALRTGNEEYLLRLIDPEVRIRQGDKTLIGREALNLHLKKVKNLQFRDIKLRDFDVQGEKIHLHTELIGEVDGRELKIDIDIHVKKINGRWVIDSFHIN,1.32
15,SDIEDHAIEFFSNELWSWHTGDEHDLKKLLDPNARIYINGVEVHGRERVLEDLIENMRRRGVRVNEVRVRDFHIVGNFLHFDVRIKYRVGDKILTYEVRILVLKIDGVWFFSELRIE,1.55
16,TDLEELFDYAIDLLRSLLLTGDEHMSVRLADPNTKLEVNGRYIHGREKFREWFRWFLEHLRFDHLHIHSVETQGDYAFMDSRVHLRYGDKVIEFITHQIVLKFDGRWYLHSMEIR,0.587
17,SEDETLMRHLVQLFIRREATGDWKKLDELFDPNVRIDINGVEYHGREDWLKHYEDLLKRIKNVRIEIDDQHMEVVGDFIHYDLHGTLEVNGRNIRMQIIIHIRKIDGKWLIEEQIIIIR,1.4
18,SEDDRDAEKMSKDWIHLMLTGDEDHLRELLDPNVRMEQGDKEFIGRELLVEVFSRTVKHLGIKHIQLEESRTNVQGEKVIVILIMDYRAENRRVEFHIHLIVDKVNGRWLVQSVRFRFK,1.25
19,SERHKDMKRLIDEWRKSYETGDEDQLRRLLDPTTRVDFNGVEYHGRHEAVEIMSQIRVEHIDIRELHVQGNKAEVRVRMHGHFDGQEEEVEFIIYMKKVNGRWVVHQEEHR,1.16
20,NESEELYRIALELKRETDKTGDEEIFRKLMDPSTRLEVDGRIWHGREAVEVFIRRFDHLHRFEVKDTRVFDGQVQIEGELDSTVGDKRLNVHIEVFAIKFDGRWRLKSVRVE,1.58
21,SEEEEEAWRSTEKWTHSEKTGDFESLLRLADPNARVHVNGRELVGMETVIRRFIEHVERFKNIRIQHHTEHIEFYGDKVIIDSRLHISIGDKTITITIELVTTKFNGRWLLQEITIK,0.475
22,SEEEEHIREFWNLLLRAYRTGDEKQLRELFDPHVRIHINGKEIHGMEDMIRHIREIRVIITHLELREFSFFNGRAHVDGERDLRITVGEFHRSHRTDVTIITEKVNGQWRIEEVRVH,1.46
23,SEEEDLMRHLTELYIRAFETGDEDHLRKLADPHVRLHVDIDGKRLDFHGMEQTSEWWERMGIDVHHLHHHEFIGDKSHIDSEVVFNGRKRKFEINVVIVNGRIKSERHIFK,0.691
24,DEEHHELHKMFEEMINKWITGDWEYIVKLLDPHVKLEVGDKRHHGWKQYVLFLEEFMREFKNATIKIHDVTHVDGVVIINMKFHFNGKDIDTTLYLHIVNGRLHDERIEVE,1.74
25,DEEDREKDDLLRRFITAIYTGDERAIKEYLDPHVRTVFNGQEKHGREEVTTLVWQIMRELGIKVIRTHDEREQGNKVELHLELFVGNKRLEINVFAEKVDGKWILRQFIIKVD,1.2

row,Sequence,protease stability score
1,DEEEKKWKDMVHLWFHWHVTGDFEALYENFDPNARLEQTIDGKRIEVHGREVVKEFFHRLMEELGVDHIRIERRQIQGEKVHIRGTSIFNGKERDVHIDLVVIDGRFRSARIIFN,1.39
2,DEEERDSKRALELMIHWVETGNEERLSRLIDPHARLEIGDKHHHGREEFEKWFRRIDYLQYYTVRHIELQGDKIEVKVELTFIIDGQEVHTETRVIAIKFDGRWRLTSMEIN,1.54
3,DEENKSMEEMIRLLTEALRTGDFELIHHLADPRMRILIGDKELHGWESWAQFVVKLGVKHTRIQIDDFRIIDGRINLHTHMEIDIDGRRTSSHTHMETIKVDGRWLITVLKIR,1.1
4,TEEEEEARRALEEWIHNLMTGDEKRELELADPHVRILIDINGREIHMHGWEQFERWVHEEMRRLGLDRFEVRLEHIEIQGDKSVLDGRINYNGVDERNNIILVVVDGKLRQIRIHVI,1.95
5,SEEEEQVERFLRLWLHALRTGDEDTHERLMDPNTRIQIGNFIFHGRERALKVVHHLIRQIDHIHDFDIHDVRVQGNKVHVDVRLNTHFDGRTIVLNLHIHIHKVDGRWLFTSLSRE,1.23
6,DESREIAHKFLEIWIDAFKTGDEDLNSELLDPNTRRDVGDFRIHGMELIVKIMSKELEKYKGITFRVKIRHSTWQGDKIHLIVDILIIIGDKEERIETHFILEKIDGRWITTHMQIR,1.34
7,TEEEDEASRLMEEFLKHHETGDWEELKKMADPDARYHETVNGKRIERHGRDDLITWLRKFLEKFKNMRLHIDEMRLIGNKNILHGTLRIGDKDIESRIILIIIDGRIKEIEIIIK,1
8,DQEEHEFYNVLRLFMFTLMTGDEHTLKKLLDPNARIEINGQERHGREEILHHMNRNLHEIRMKTLEVKRESVYGNYAHADTRLRGEVNGRESIVTVHIYIQVINGRIEHVHLDIK,1.45
9,DEDEHIERHLFEELIELLRTGDFRRLFELIDPHARFVVDGRDHHGMEYAMRERLRRLEEAGVKHIRIRRKDVINGRLHIHSSVNVNGVEQEERIIIEKVNGRWTITEIVID,1.26
10,DEDKEAARHFSKILIHLMLTGDEEMIERLLDPDVKVHLVINGVHIERHGREEMIKMHRELLEQIRWKDFILRDIKVVNGVAHVDGELRREQGDKHETVRVRIDIVVINGRIRQVHIEFR,0.404
11,DESEELTKEAKRVYYETMRTGDEHNLKRLMDPNTRMDFNGVEFHGREAVKILVEQADHLEDVRIKRERVDEHEVELHGEFHGKVNGRHTTTHVILFWLKYNGRWRVKELQVR,0.84
12,SEDEHDSELALRIFIQEVYTGDWKRLADNMDPNVRLEINGVENHGRELAIKNLRRRLEELGVKVSDLKIDDIKVQGDKVNLDGQLNLHVNGRTIIINTEVIFRKVDGRWIIESIRYE,1.7
13,SDLDEVARHATQLIEEVQQTGDWHTLMRLADPNTRLLIGDKVIHGMTELIRILDELYERWGVSKVKVRLHDVRVQGDKVDVDTRSEFNGREVKVRFIIRKVDGRWHLKSVEEHLD,1.12
14,DEDEQFWRNLAEEFMRALETGDEERMQELFDPHARLDIDGRRFHGWDTVIKFFEDLLKHLGITRIEFVYRRVRVINGVFHIEGEINVDGQTRDSRIENIVVDGKSQELRFNHR,0.298
15,DEEEEHMRKMHEKFRKIRHTGNFEDYFRLLDPNARMHVNGQNMHGRDVVSKWFKHFVEEIRIEHFEIHDVKYIDGRSHEDGWLVGTIDGKHFDSRTEIILIVVDGKLKQFHIHIR,0.489
16,DELTEDLKHAMTIFLHMLITGDEHWIHDLLDPNTRLEFEGREFVGREDAREEWRKISEEIRVHHVEMKDIHVFDGVIIVDGRMDGEVNGRRTHLNVFFVFHKVNGKWLMRQHSLR,1.42
17,DENETALREVIKRYFKAILTGDEHELENLLDPNVRVEINGVKLHGMRDYLEWIREWRIKDMRIRIEHVEVIGNKMIIDSRLRVNETVNGVTRDREKKLHLIVTKINGRWHIEEINEE,2.16
18,DEETEILKKVVKEMRKIMHTGDEHEIHRYLDPNARLDVDGREVHGREALLEFLRKFKGMTVHIDDVEDIGDKIFIDHELRFDGVTRKSEIISNKINGRWHVESVHIR,0.357
19,DDLEHDHKTVLELLKHLEETGDWDRLAKLADPNVRLQIGDKEWHGRRDMAKVLKRFIEEMRIQHIRFRDMKIQGDKLVFDTELDFEQGDKTVHVRTEIILVVVNGQLKSIEIRIE,2.44
20,SELKQAIDDLIRRFEHIYHTGNEEIWERLADPNTRIDIDGQEIIGREQATRERREEMKKLGVERVEVELRLRNVEVVGNKLHLDGELILRYGDKTVVIDSKINLQKINGRWVIREEIYH,1.04
21,SEDDRDANNMREILQHLWFTGNEEEFLRLLDPDTLFHVNGQQKVGRERVEELLHHLLEKLGADHEEIHDWEVRLQGDKLDIHVHIRLIIGDKEFRIHIDFHIYKIDGRWRIHSVKLEIK,2.1
22,SEEEESAKWFNHVRHEAERTGDEETLLRLLDPSVKSTYGDKTSHGRHEMEEIMKRLGVSRVHLDIRHVEVQGDKVNVDGLVEFDGQEMRVILIVLKIDGRWIAEHVIVH,-0.118
23,SEEEEHAKHIARLWMESFYTGDEHHMSHLLDPNVRIIIEIGDKSDEFHGREETVKWVRKYLREMRLKNFEIHDQRVFNGVANDDTIVHGNVDGRERNIRTHIIIVVVNGRVKEVKVEVK,1.6
24,DEDEKIYRWALSVFLRNFLTGDEDSLRRMMDPDVRLEVGDKEDHGMEKVVRWLTEMMRKFKGATVHLRDHKTQGNKVHLDLELNVGDKHSKLIIIIKKVDGQWIVDEFTVH,1.52
25,DEDEELVRHAYEDWLHTVRTGDEHTLNKLFDPHVRMHYDGVESHGWRIAHHFHRRFKNMQVRIDDEHIEVYGEFARVESKITLDVGEYKIDLTLIVIMIKVNGRWKIHSVRIEKR,1.17
